B1: Zinc finger protein RFP (Homo sapiens), P14373 (parent)
chain: MASGSVAECLQQETTCPVCLQYFAEPMMLDCGHNICCACLARCWGTAETNVSCPQCRETFPQRHMRPNRHLANVTQLVKQLRTERPSGPGGEMGVCEKHREPLKLYCEEDQMPICVVCDRSREHRGHSVLPLEEAVEGFKEQIQNQLDHLKRVKDLKKRRRAQGEQARAELLSLTQMEREKIVWEFEQLYHSLKEHEYRLLARLEELDLAIYNSINGAITQFSCNISHLSSLIAQLEEKQQQPTRELLQDIGDTLSRAERIRIPEPWITPPDLQEKIHIFAQKCLFLTESLKQFTEKMQSDMEKIQELREAQLYSVDVTLDPDTAYPSLILSDNLRQVRYSYLQQDLPDNPERFNLFPCVLGSPCFIAGRHYWEVEVGDKAKWTIGVCEDSVCRKGGVTSAPQNGFWAVSLWYGKEYWALTSPMTALPLRTPLQRVGIFLDYDAGEVSFYNVTERCHTFTFSHATFCGPVRPYFSLSYSGGKSAAPLIICPMSGIDGFSGHVGNHGHSMETSP

Experimental findings from IntAct's records for PubMed 26365382 are described below.

The test covers variants of B1. Particulars: with magl2_human MAGEL2, Q9UJ55.
Sequence of magl2_human MAGEL2, Q9UJ55 (Q9UJ55 whole entry): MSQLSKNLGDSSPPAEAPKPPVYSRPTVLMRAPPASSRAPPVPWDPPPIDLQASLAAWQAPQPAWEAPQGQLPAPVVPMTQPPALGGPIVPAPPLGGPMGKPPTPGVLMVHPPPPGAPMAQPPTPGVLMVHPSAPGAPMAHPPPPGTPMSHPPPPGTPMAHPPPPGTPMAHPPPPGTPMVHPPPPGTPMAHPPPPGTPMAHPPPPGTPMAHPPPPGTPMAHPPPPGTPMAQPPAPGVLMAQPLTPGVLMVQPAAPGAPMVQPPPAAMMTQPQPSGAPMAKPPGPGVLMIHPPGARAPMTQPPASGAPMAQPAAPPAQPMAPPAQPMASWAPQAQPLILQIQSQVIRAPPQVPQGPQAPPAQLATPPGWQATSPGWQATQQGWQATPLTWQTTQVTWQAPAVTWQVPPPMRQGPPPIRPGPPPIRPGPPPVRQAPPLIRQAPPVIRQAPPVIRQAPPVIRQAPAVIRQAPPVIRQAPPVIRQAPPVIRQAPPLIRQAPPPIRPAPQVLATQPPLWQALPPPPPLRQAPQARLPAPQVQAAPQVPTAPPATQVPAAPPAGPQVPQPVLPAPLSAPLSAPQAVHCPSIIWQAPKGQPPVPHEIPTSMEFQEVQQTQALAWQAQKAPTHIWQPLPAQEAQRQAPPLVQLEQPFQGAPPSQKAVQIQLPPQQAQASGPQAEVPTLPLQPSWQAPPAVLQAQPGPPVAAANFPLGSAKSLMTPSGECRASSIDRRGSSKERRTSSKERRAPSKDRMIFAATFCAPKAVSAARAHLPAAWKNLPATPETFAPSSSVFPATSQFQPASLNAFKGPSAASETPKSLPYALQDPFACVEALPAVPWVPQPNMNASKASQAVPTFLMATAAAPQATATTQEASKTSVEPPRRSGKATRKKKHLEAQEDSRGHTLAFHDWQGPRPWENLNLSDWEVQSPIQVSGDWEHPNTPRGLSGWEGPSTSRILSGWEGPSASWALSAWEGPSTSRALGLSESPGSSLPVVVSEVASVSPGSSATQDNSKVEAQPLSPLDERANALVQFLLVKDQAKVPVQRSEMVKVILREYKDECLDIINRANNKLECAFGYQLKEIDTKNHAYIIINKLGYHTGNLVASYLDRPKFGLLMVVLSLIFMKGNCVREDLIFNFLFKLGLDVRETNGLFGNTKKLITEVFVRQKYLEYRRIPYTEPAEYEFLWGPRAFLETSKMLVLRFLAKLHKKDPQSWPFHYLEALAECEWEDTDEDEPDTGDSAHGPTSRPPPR
Regarding K304R;K380R;K382R, the “effect of a mutation on the interaction” value was “with no effect”.
